Values of other authors in publication PMC7677405.

Target: insulin receptor (Homo sapiens) (UniProt P06213)
Chain of UniProt P06213 (P06213 763-1382): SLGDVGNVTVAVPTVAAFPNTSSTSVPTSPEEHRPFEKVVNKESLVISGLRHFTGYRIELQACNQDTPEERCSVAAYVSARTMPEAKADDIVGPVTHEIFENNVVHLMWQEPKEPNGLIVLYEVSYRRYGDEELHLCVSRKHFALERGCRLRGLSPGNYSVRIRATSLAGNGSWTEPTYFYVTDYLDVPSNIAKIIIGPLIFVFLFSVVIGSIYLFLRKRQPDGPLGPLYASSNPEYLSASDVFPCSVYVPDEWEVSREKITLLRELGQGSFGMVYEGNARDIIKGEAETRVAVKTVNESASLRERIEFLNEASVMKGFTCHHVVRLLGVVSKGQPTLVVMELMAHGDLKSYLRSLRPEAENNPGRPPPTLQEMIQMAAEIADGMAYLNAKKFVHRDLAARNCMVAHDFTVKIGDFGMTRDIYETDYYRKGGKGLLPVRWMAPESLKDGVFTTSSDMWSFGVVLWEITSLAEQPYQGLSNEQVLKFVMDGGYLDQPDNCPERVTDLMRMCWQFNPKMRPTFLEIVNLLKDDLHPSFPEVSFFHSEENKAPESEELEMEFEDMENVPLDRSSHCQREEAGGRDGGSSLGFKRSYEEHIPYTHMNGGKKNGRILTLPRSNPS

Chain of insulin (P01308 90-110): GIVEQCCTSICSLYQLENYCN

Kd: 0.028 µM
Substance: insulin (from UniProt P01308)
